Results reported in the Human Domainome abundance scans (Beltran et al. 2025).
± gives the uncertainty stated by the source.

B1: KAT8 regulatory NSL complex subunit 2, residues 28 to 91; numbered along this chain, Q9H9L4 (parent)
chain: CAFTHRPCSHPRLEGQEFCIKHILEDKNAPFKQCSYISTKNGKRCPNAAPKPEKKDGVSFCAEH

Variants of: B1
Assay: abundance fitness (aPCA) (normalised: wild type 0, dead -1); higher = more abundant; growth selection in yeast, the domain comes from the species named
Conditions: Homo sapiens

**Q.** For CAFTHRPCSHPRLEGQEFCIKHILEDKNAPFKQCSYISTKNGKRCPNAANKPEKKDGVSFCAEH, which abundance fitness is on record?
**A.** Its abundance fitness is -0.126 ± 0.072.

**Q.** For CAFTHRPCSHPRLEGQEFCIKHILEDKNAPFKQCSYISTKNGKRCPNAALKPEKKDGVSFCAEH, which abundance fitness is on record?
**A.** Its abundance fitness is -0.131 ± 0.069.

**Q.** With CAFTHRPCSHPRLEGQEFCIKHILEDKNAPFKQCSYISTKNGKRCPNAAHKPEKKDGVSFCAEH as the variant, how does the abundance fitness read?
**A.** The abundance fitness was -0.135 ± 0.07.

**Q.** With CAFTHRPCSHPRLEGQEFCIKHILEDKNAPFKQCSYISTKNGKRCPNAAMKPEKKDGVSFCAEH as the variant, how does the abundance fitness read?
**A.** The abundance fitness was -0.219 ± 0.13.

**Q.** Which abundance fitness does the source give for CAFTHRPCSHPRLEGQEFCIKHILEDKNAPFKQCSYISTKNGKRCPNAAAKPEKKDGVSFCAEH here?
**A.** Its abundance fitness is -0.213 ± 0.082.

**Q.** For CAFTHRPCSHPRLEGQEFCIKHILEDKNAPFKQCSYISTKNGKRCPNAADKPEKKDGVSFCAEH, which abundance fitness is on record?
**A.** Its abundance fitness is -0.302 ± 0.098.

**Q.** Which abundance fitness does the source give for CAFTHRPCSHPRLEGQEFCIKHILEDKNAPFKQCSYISTKNGKRCPNAAQKPEKKDGVSFCAEH here?
**A.** The abundance fitness was -0.265 ± 0.2.

**Q.** For CAFTHRPCSHPRLEGQEFCIKHILEDKNAPFKQCSYISTKNGKRCPNAGPKPEKKDGVSFCAEH, which abundance fitness is on record?
**A.** Its abundance fitness is -0.06 ± 0.057.

**Q.** Which abundance fitness does the source give for CAFTHRPCSHPRLEGQEFCIKHILEDKNAPFKQCSYISTKNGKRCPNAQPKPEKKDGVSFCAEH here?
**A.** Its abundance fitness is -0.3 ± 0.066.

**Q.** With CAFTHRPCSHPRLEGQEFCIKHILEDKNAPFKQCSYISTKNGKRCPNAPPKPEKKDGVSFCAEH as the variant, how does the abundance fitness read?
**A.** The abundance fitness was -0.219 ± 0.078.

**Q.** For CAFTHRPCSHPRLEGQEFCIKHILEDKNAPFKQCSYISTKNGKRCPNAKPKPEKKDGVSFCAEH, which abundance fitness is on record?
**A.** Its abundance fitness is -0.321 ± 0.077.

**Q.** Which abundance fitness does the source give for CAFTHRPCSHPRLEGQEFCIKHILEDKNAPFKQCSYISTKNGKRCPNAFPKPEKKDGVSFCAEH here?
**A.** Its abundance fitness is -0.124 ± 0.071.

**Q.** For CAFTHRPCSHPRLEGQEFCIKHILEDKNAPFKQCSYISTKNGKRCPNATPKPEKKDGVSFCAEH, which abundance fitness is on record?
**A.** Its abundance fitness is -0.005 ± 0.087.

**Q.** With CAFTHRPCSHPRLEGQEFCIKHILEDKNAPFKQCSYISTKNGKRCPNALPKPEKKDGVSFCAEH as the variant, how does the abundance fitness read?
**A.** The abundance fitness was -0.094 ± 0.044.

**Q.** With CAFTHRPCSHPRLEGQEFCIKHILEDKNAPFKQCSYISTKNGKRCPNAHPKPEKKDGVSFCAEH as the variant, how does the abundance fitness read?
**A.** Its abundance fitness is -0.147 ± 0.11.

**Q.** For CAFTHRPCSHPRLEGQEFCIKHILEDKNAPFKQCSYISTKNGKRCPNAWPKPEKKDGVSFCAEH, which abundance fitness is on record?
**A.** The abundance fitness was -0.315 ± 0.067.

**Q.** For CAFTHRPCSHPRLEGQEFCIKHILEDKNAPFKQCSYISTKNGKRCPNAVPKPEKKDGVSFCAEH, which abundance fitness is on record?
**A.** The abundance fitness was 0.076 ± 0.078.

**Q.** With CAFTHRPCSHPRLEGQEFCIKHILEDKNAPFKQCSYISTKNGKRCPNACPKPEKKDGVSFCAEH as the variant, how does the abundance fitness read?
**A.** The abundance fitness was -0.148 ± 0.091.

**Q.** With CAFTHRPCSHPRLEGQEFCIKHILEDKNAPFKQCSYISTKNGKRCPNAYPKPEKKDGVSFCAEH as the variant, how does the abundance fitness read?
**A.** The abundance fitness was -0.261 ± 0.12.

**Q.** Which abundance fitness does the source give for CAFTHRPCSHPRLEGQEFCIKHILEDKNAPFKQCSYISTKNGKRCPNARPKPEKKDGVSFCAEH here?
**A.** Its abundance fitness is -0.332 ± 0.053.

**Q.** For CAFTHRPCSHPRLEGQEFCIKHILEDKNAPFKQCSYISTKNGKRCPNAEPKPEKKDGVSFCAEH, which abundance fitness is on record?
**A.** The abundance fitness was -0.212 ± 0.17.

**Q.** For CAFTHRPCSHPRLEGQEFCIKHILEDKNAPFKQCSYISTKNGKRCPNADPKPEKKDGVSFCAEH, which abundance fitness is on record?
**A.** Its abundance fitness is -0.339 ± 0.13.

**Q.** Which abundance fitness does the source give for CAFTHRPCSHPRLEGQEFCIKHILEDKNAPFKQCSYISTKNGKRCPNANPKPEKKDGVSFCAEH here?
**A.** Its abundance fitness is -0.143 ± 0.17.

**Q.** With CAFTHRPCSHPRLEGQEFCIKHILEDKNAPFKQCSYISTKNGKRCPNAIPKPEKKDGVSFCAEH as the variant, how does the abundance fitness read?
**A.** The abundance fitness was -0.076 ± 0.091.

**Q.** With CAFTHRPCSHPRLEGQEFCIKHILEDKNAPFKQCSYISTKNGKRCPNAAPFPEKKDGVSFCAEH as the variant, how does the abundance fitness read?
**A.** Its abundance fitness is -0.21 ± 0.068.

**Q.** Which abundance fitness does the source give for CAFTHRPCSHPRLEGQEFCIKHILEDKNAPFKQCSYISTKNGKRCPNAAPTPEKKDGVSFCAEH here?
**A.** Its abundance fitness is -0.112 ± 0.073.

**Q.** Which abundance fitness does the source give for CAFTHRPCSHPRLEGQEFCIKHILEDKNAPFKQCSYISTKNGKRCPNAAPMPEKKDGVSFCAEH here?
**A.** The abundance fitness was -0.099 ± 0.11.

**Q.** With CAFTHRPCSHPRLEGQEFCIKHILEDKNAPFKQCSYISTKNGKRCPNAAPRPEKKDGVSFCAEH as the variant, how does the abundance fitness read?
**A.** Its abundance fitness is -0.087 ± 0.075.

**Q.** Which abundance fitness does the source give for CAFTHRPCSHPRLEGQEFCIKHILEDKNAPFKQCSYISTKNGKRCPNAAPHPEKKDGVSFCAEH here?
**A.** The abundance fitness was -0.166 ± 0.091.

**Q.** Which abundance fitness does the source give for CAFTHRPCSHPRLEGQEFCIKHILEDKNAPFKQCSYISTKNGKRCPNAAPPPEKKDGVSFCAEH here?
**A.** Its abundance fitness is -0.109 ± 0.08.

**Q.** For CAFTHRPCSHPRLEGQEFCIKHILEDKNAPFKQCSYISTKNGKRCPNAAPYPEKKDGVSFCAEH, which abundance fitness is on record?
**A.** Its abundance fitness is -0.327 ± 0.094.

**Q.** With CAFTHRPCSHPRLEGQEFCIKHILEDKNAPFKQCSYISTKNGKRCPNAAPVPEKKDGVSFCAEH as the variant, how does the abundance fitness read?
**A.** Its abundance fitness is -0.035 ± 0.085.

**Q.** With CAFTHRPCSHPRLEGQEFCIKHILEDKNAPFKQCSYISTKNGKRCPNAAPQPEKKDGVSFCAEH as the variant, how does the abundance fitness read?
**A.** Its abundance fitness is -0.217 ± 0.37.

**Q.** With CAFTHRPCSHPRLEGQEFCIKHILEDKNAPFKQCSYISTKNGKRCPNAAPDPEKKDGVSFCAEH as the variant, how does the abundance fitness read?
**A.** The abundance fitness was -0.05 ± 0.12.

**Q.** For CAFTHRPCSHPRLEGQEFCIKHILEDKNAPFKQCSYISTKNGKRCPNAAPNPEKKDGVSFCAEH, which abundance fitness is on record?
**A.** Its abundance fitness is -0.195 ± 0.12.

**Q.** With CAFTHRPCSHPRLEGQEFCIKHILEDKNAPFKQCSYISTKNGKRCPNAAPCPEKKDGVSFCAEH as the variant, how does the abundance fitness read?
**A.** The abundance fitness was -0.072 ± 0.092.

**Q.** For CAFTHRPCSHPRLEGQEFCIKHILEDKNAPFKQCSYISTKNGKRCPNAAPSPEKKDGVSFCAEH, which abundance fitness is on record?
**A.** The abundance fitness was -0.105 ± 0.064.

**Q.** With CAFTHRPCSHPRLEGQEFCIKHILEDKNAPFKQCSYISTKNGKRCPNAAPGPEKKDGVSFCAEH as the variant, how does the abundance fitness read?
**A.** Its abundance fitness is -0.033 ± 0.088.

**Q.** For CAFTHRPCSHPRLEGQEFCIKHILEDKNAPFKQCSYISTKNGKRCPNAAPLPEKKDGVSFCAEH, which abundance fitness is on record?
**A.** Its abundance fitness is -0.101 ± 0.052.

**Q.** Which abundance fitness does the source give for CAFTHRPCSHPRLEGQEFCIKHILEDKNAPFKQCSYISTKNGKRCPNAAPEPEKKDGVSFCAEH here?
**A.** The abundance fitness was -0.064 ± 0.13.

**Q.** For CAFTHRPCSHPRLEGQEFCIKHILEDKNAPFKQCSYISTKNGKRCPNAAPAPEKKDGVSFCAEH, which abundance fitness is on record?
**A.** The abundance fitness was -0.03 ± 0.071.

**Q.** Which abundance fitness does the source give for CAFTHRPCSHPRLEGQEFCIKHILEDKNAPFKQCSYISTKNGKRCPNAAPIPEKKDGVSFCAEH here?
**A.** Its abundance fitness is -0.041 ± 0.088.
